Article PMC11408749, “Molecular mechanisms for DNA methylation defects induced by ICF syndrome‐linked mutations in DNMT3B”

Key:
Test in all cases: fluorescence polarization; FP: 10 nM DNA, 20 mM Tris-HCl pH 8.0, 50 mM NaCl, 5% glycerol, 1 mM TCEP, 30 min at 25 C
[1] = biological target: DNMT3BΔ570 R823G;DNMT3L MTase-like domain (human;human, UniProt Q9UBC3;Q9UJW3 571-853;179-379, R823G|); settings: protein: recombinant;recombinant; tags: 6xHis-SUMO removed by TEV;6xHis removed by TEV; chain copies: 2;2; label: 3'-FAM
Sequence of DNMT3BΔ570 R823G;DNMT3L MTase-like domain (Q9UJW3 179-379, chain 2 of 2, other chains not shown): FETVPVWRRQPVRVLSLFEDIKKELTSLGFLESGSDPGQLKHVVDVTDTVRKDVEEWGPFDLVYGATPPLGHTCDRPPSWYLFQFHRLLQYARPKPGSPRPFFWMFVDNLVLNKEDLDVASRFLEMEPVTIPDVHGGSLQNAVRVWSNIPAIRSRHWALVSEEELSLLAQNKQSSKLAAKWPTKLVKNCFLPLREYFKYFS

[2] = biological target: DNMT3BΔ214 V818M;DNMT3L MTase-like domain (human;human, UniProt Q9UBC3;Q9UJW3 215-853;179-379, V818M|); settings: protein: recombinant;recombinant; tags: tag (if any) removed by TEV;6xHis removed by TEV; chain copies: 2;2; label: 3'-FAM
Sequence of DNMT3BΔ214 V818M;DNMT3L MTase-like domain (Q9UJW3 179-379, chain 2 of 2, other chains not shown): as above

[3] = biological target: DNMT3BΔ570 WT;DNMT3L MTase-like domain (human;human, UniProt Q9UBC3;Q9UJW3 571-853;179-379, |); settings: protein: recombinant;recombinant; tags: 6xHis-SUMO removed by TEV;6xHis removed by TEV; chain copies: 2;2; label: 3'-FAM
Sequence of DNMT3BΔ570 WT;DNMT3L MTase-like domain (Q9UJW3 179-379, stated change not applied, chain 2 of 2, other chains not shown): as the sequence (Q9UJW3 179-379, chain 2 of 2, other chains not shown) above

[4] = biological target: DNMT3BΔ214 H814R;DNMT3L MTase-like domain (human;human, UniProt Q9UBC3;Q9UJW3 215-853;179-379, H814R|); settings: protein: recombinant;recombinant; tags: tag (if any) removed by TEV;6xHis removed by TEV; chain copies: 2;2; label: 3'-FAM
Sequence of DNMT3BΔ214 H814R;DNMT3L MTase-like domain (Q9UJW3 179-379, chain 2 of 2, other chains not shown): as above

[5] = biological target: DNMT3BΔ214 WT;DNMT3L MTase-like domain (human;human, UniProt Q9UBC3;Q9UJW3 215-853;179-379, |); settings: protein: recombinant;recombinant; tags: tag (if any) removed by TEV;6xHis removed by TEV; chain copies: 2;2; label: 3'-FAM
Sequence of DNMT3BΔ214 WT;DNMT3L MTase-like domain (Q9UJW3 179-379, stated change not applied, chain 2 of 2, other chains not shown): as the sequence (Q9UJW3 179-379, chain 2 of 2, other chains not shown) above

[6] = biological target: DNMT3BΔ214 R823G;DNMT3L MTase-like domain (human;human, UniProt Q9UBC3;Q9UJW3 215-853;179-379, R823G|); settings: protein: recombinant;recombinant; tags: tag (if any) removed by TEV;6xHis removed by TEV; chain copies: 2;2; label: 3'-FAM
Sequence of DNMT3BΔ214 R823G;DNMT3L MTase-like domain (Q9UJW3 179-379, chain 2 of 2, other chains not shown): as above

[7] = biological target: DNMT3BΔ214 D817G;DNMT3L MTase-like domain (human;human, UniProt Q9UBC3;Q9UJW3 215-853;179-379, D817G|); settings: protein: recombinant;recombinant; tags: tag (if any) removed by TEV;6xHis removed by TEV; chain copies: 2;2; label: 3'-FAM
Sequence of DNMT3BΔ214 D817G;DNMT3L MTase-like domain (Q9UJW3 179-379, chain 2 of 2, other chains not shown): as above

B1: 49-bp FAM dsDNA (dsDNA)
DNA 1: AAAACGAAAAAAAAAAAAAAAAAAAAAAAAAAAAAAAAAAAAAAAAAAA
DNA 2: TTTTTTTTTTTTTTTTTTTTTTTTTTTTTTTTTTTTTTTTTTTCGTTTT
Kd [1]: 0.171 ± 0.008 µM
Kd [2]: 7.21 ± 0.78 µM
Kd [3]: 0.07 ± 0.007 µM
Kd [4]: 299 ± 55.8 µM
Kd [5]: 2.73 ± 0.26 µM
Kd [6]: 5.39 ± 0.58 µM
Kd [7]: 58 ± 6.15 µM
